US20250289887A1 (Memorial Sloan Kettering, published 2025)

Target: T1, FKBP12 drug-induced heterodimerization domain (DmrA) (Homo sapiens (Human), UniProt P62942 2-108)
T1 construct: also called FKBP12-DmRA; FKBP12 heterodimerizing domain
Assay: drug-induced heterodimerization inside mouse T cells, with 1 µM AP21967; read out as hCD34 surface expression by flow cytometry (FIG. 9B)
Source text: In the instant example, mouse T cells were transduced with the following 2 vectors (FIG. 9A): (Vector 1) encodes a Thy1.1 reporter and a drug-activated intein-tagged antigen-binding construct comprised of a CD19-targeting scFv fused to a hCD34 affinity-tag, a CD8 hinge and transmembrane domain, an AES CL low affinity intein N terminus, an FKBP12 drug-induced heterodimerization domain (DmrA), and an E319K ER retention motif, while (Vector 2) encodes an EGFP reporter and a cytoplasmic signaling shuttle comprised of a FRB drug-induced heterodimerization domain (DmrC), an AES CL low affinity intein C terminus, a CD28 costimulatory domain, and a CD3-zeta chain. In the absence of the dimerizing drug, hCD34 expression at the cell surface is low due to presence of the ER retention motif encoded by Vector1 (FIG. 9B). […] Thus, this system enables drug-regulated splicing to regulate post-translational CAR assembly. Double-transduced cells were cultured with 1 μM A/C heterodimerizing drug and subsequently enriched by MACS sorting using anti-hCD34 magnetic beads to yield highly pure hCD34+CD19-CAR T cells (FIG. 9B). […] This methodology improves upon previous FKBP/FRB-based drug-regulated CAR systems by eliminating the FKBP/FRB proteins following trans-splicing and generating a mature CAR molecule. […]

T1 sequence (P62942 2-108 limits assumed, one chain of several): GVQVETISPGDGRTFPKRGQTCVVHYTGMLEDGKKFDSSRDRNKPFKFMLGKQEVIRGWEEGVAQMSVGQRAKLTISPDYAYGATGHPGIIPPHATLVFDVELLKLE

B1: FRB* heterodimerization domain (DmrC) (other)
chain: MILWHEMWHEGLEEASRLYFGERNVKGMFEVLEPLHAMMERGPQTLKETSFNQAYGRDLMEAQEWCRKYMKSGNVKDLLQAWDLYYHVFRRISK
notes: also called FRB drug-induced heterodimerization domain (DmrC); FRB (DmrB)
Question: Does B1 bind?
Answer: binds
